Three proteins from article PMC2746992 can be followed below.

The term kcat denotes the maximal rate divided by the concentration of active sites. In general, kcat/Km refers to the second-order rate constant that governs catalysis at low substrate concentration.

Holding throughout (test): spectrophotometric, decrease in A260
What all share (details): 50 mM Tris-HCl, pH 7.5, 0.1 mM MnCl2, 25 °C

Substrate in data set [1]: O=C(O)/C=C\C=C/C(=O)O
It is filed as biochemical, Pseudomonas protegens.

Substrate in data set [2]: O=C(O)/C=C\C=C/C(=O)O
It is filed as biochemical, Pseudomonas putida.

Substrate in data set [3]: O=C(O)/C=C\C=C/C(=O)O
The format is biochemical, Mycolicibacterium smegmatis.

B1: MLE-1 from Pseudomonas fluorescens (MLE-PF, syn-MLE) (Pseudomonas protegens Pf-5) (protein)
chain: MHASAIESIETIIVDLPTIRPHKLAMHTMQNQTLVLIRLRCADGIEGLGESTTIGGLAYGNESPDSIKTNIDRFVAPLLIGQDASNINAAMLRLEQSIRGNTFAKSGIESALLDAQGKRLGLPVSELLGGRVRDALPVAWTLASGDTAKDIAEAQKMLDLRRHRIFKLKIGAGEVDRDLAHVIAIKKALGDSASVRVDVNQAWDEAVALRACRILGGNGIDLIEQPISRNNRAGMVRLNASSPAPIMADESIECVEDAFNLAREGAASVFALKIAKNGGPRATLRTAAIAEAAGIGLYGGTMLEGGIGTLASAHAFLTLNKLSWDTELFGPLLLTEDILAEPPVYRDFHLHVSKAPGLGLSLDEERLAFFRRD
With B1, in data set [1], the Km result is on record as “(1.6 ± 0.2) × 10^-5 M”, the kcat was 110 ± 2 s⁻¹ and the kcat/Km stood at 7e+06 M⁻¹ s⁻¹.

B2: MLE-1 from Pseudomonas putida (Pseudomonas putida) (protein)
chain: TSVLIERIEAIIVHDLPTIRPPHKLAMHTMQTQTLVLIRVRCSDGVEGIGEATTIGGLAYGYESPEGIKANIDAHLAPALVGLPADNINAAMLKLDKLAKGNTFAKSGIESALLDAQGKRLGLPVSELLGGRVRDSLEVAWTLASGDTARDIAEAQHMLEIRRHRVFKLKIGANPLAQDLKHVVAIKRELGDSASVRVDVNQYWDESQAIRACQVLGDNGIDLIEQPISRINRSGQVRLNQRSPAPIMADESIESVEDAFSLAADGAASIFALKIAKNGGPRAVLRTAQIAEAAGIALYGGTMLEGSIGTLASAHAFLTLRQLTWGTELFGPLLLTEEIVNEPPQYRDFQLHIPRTPGLGLTLDEQRLARFARR
Regarding B2, in data set [2], the Km entry is on record as “(5.4 ± 0.5) × 10^-4 M”, the kcat was found to be 11 ± 0.5 s⁻¹ and the kcat/Km was found to be 20000 M⁻¹ s⁻¹.

B3: MLE-2 from Mycobacterium smegmatis (MLE-MS, anti-MLE) (Mycolicibacterium smegmatis MC2 155) (protein)
chain: MKIVAIGAIPFSIPYTKPLRFASGEVHAAEHVLVRVHTDDGIVGVAEAPPRPFTYGETQTGIVAVIEQYFAPALIGLTLTEREVAHTRMARTVGNPTAKAAIDMAMWDALGQSLRLSVSEMLGGYTDRMRVSHMLGFDDPVKMVAEAERIRETYGINTFKVKVGRRPVQLDTAVVRALRERFGDAIELYVDGNRGWSAAESLRAMREMADLDLLFAEELCPADDVLSRRRLVGQLDMPFIADESVPTPADVTREVLGGSATAISIKTARTGFTGSTRVHHLAEGLGLDMVMGNQIDGQIGTACTVSFGTAFERTSRHAGELSNFLDMSDDLLTVPLQISDGQLHRRPGPGLGIEIDPDKLAHYRTDN
Take B3: in data set [3], the Km result is “(5.6 ± 1) × 10^-4 M”, the kcat was determined as 78 ± 6 s⁻¹ and the kcat/Km is 140000 M⁻¹ s⁻¹.
